Tested on: MS2 coat protein
Assay: apparent KD of MS2 coat protein; designed switch direction (-1 OFF switch, 1 ON switch): 1; higher = weaker reporter binding
Outline: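 On Illumina chips, designed RNA switches with common flanks were made by stalled E. coli RNA polymerase. Titrations with SNAP-549-labelled MS2 coat protein, doubling from 0.7 or 1.5 nM to 3 µM, were done with no input, with 200 uM small-molecule ligand, or with an oligonucleotide input. Apparent KD is the median per design over clusters, from curve fits of normalised cluster fluorescence.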

[1] = input ligand: microRNA oligo, concentration not stated
[2] = Eterna round: R95, input ligand: FMN 200 uM
[3] = Eterna round: R95, input ligand: microRNA oligo, concentration not stated
[4] = Eterna round: R95, input ligand: none

Sequence: AGAUCAUGACGAGGAUAUGGUACAUGAGGAUCACCCAUGUAUGUACCACGACGGAAACGUCGAAUCCAGAAGGCGUCGUGAUCA [Mat - Same State NG 2 - JL mod - D23] (Eterna round: R96, puzzle: Same State NG 2)
- apparent KD of MS2 coat protein (input ligand: FMN 200 uM): 0.0475 µM
- apparent KD of MS2 coat protein [1]: 0.1 µM
- apparent KD of MS2 coat protein (input ligand: none): 0.127 µM

Sequence: GGAAUAUGAUGUUACAUGAGGAUCACCCAUGUAGUGAUAACUAAGGAUAUUUGAAAGGGAGGAGAAGAGAAGGUAGGAUCAUAA [AK SSNG3-V2-11.1] (Eterna round: R96, puzzle: Same State NG 3)
- apparent KD of MS2 coat protein (input ligand: FMN 200 uM): 0.0607 µM
- apparent KD of MS2 coat protein [1]: 0.0476 µM
- apparent KD of MS2 coat protein (input ligand: none): 0.0637 µM

Sequence: UAGAGAGGAAGCGAGGAUAUCGUGUGAGGUACAUGAGGAUCACCCAUGUUUUAUGUUGAGAGAGGCGAGAAGGCGCAGGAGAAAA [JR_SS2_Sub087] (puzzle: Same State 2)
- apparent KD of MS2 coat protein [2]: 0.02 µM
- apparent KD of MS2 coat protein [3]: 0.0373 µM
- apparent KD of MS2 coat protein [4]: 0.0262 µM

Sequence: AUUUCUAAUGCAGGAUAUGAUUAACAUGAGGAUCACCCAUGUGGUGUUGUGAGUAAGGAGAGUGAUCAGAAGGGCAUUUUUUUU [JMF's solution 99] (Eterna round: R96, puzzle: Same State NG 2)
- apparent KD of MS2 coat protein (input ligand: FMN 200 uM): 0.915 µM
- apparent KD of MS2 coat protein [1]: 0.428 µM
- apparent KD of MS2 coat protein (input ligand: none): 0.579 µM

Sequence: GUAGCAUGCAGGCAGGAUAUUCAUAUUAAAACAUGAGGAUCACCCAUGUAGGCCAGAAGGCCUUGGGAGAAGGGCCACAUGCUAC [Xeonanis - 17] (puzzle: Same State 2)
- apparent KD of MS2 coat protein [2]: 0.0369 µM
- apparent KD of MS2 coat protein [3]: 0.595 µM
- apparent KD of MS2 coat protein [4]: 0.8 µM

Sequence: GUGGUCAGACAUGAGGAUCACCCAUGUGGAAUAAAUAAGGGACAGGAUAUUCAAUAUAGGAUAUAGAAGAAGGGUUGGUUGGUG (Eterna round: R96, puzzle: Same State NG 3)
- apparent KD of MS2 coat protein [1]: 0.104 µM

Sequence: CAGCGCUGUCGAGAGGAUAUGCGGUGAUGGACAUGAGGAUCACCCAUGUUAGCGACAGCAUCACGGCAGAAGGCUCUACCGCCUG [Soteed Omei mod 43] (puzzle: Same State 2)
- apparent KD of MS2 coat protein [2]: 0.0179 µM
- apparent KD of MS2 coat protein [3]: 0.0224 µM
- apparent KD of MS2 coat protein [4]: 0.0323 µM

Sequence: UGGUACAUGGGAGGAUAUGGGCAUGAGACAUGAGGAUCACCCAUGUUAUAAAAGCCGAGAGGCAUCUAGAAGGCCCAUGUACCU [JL SSNG1 3.91] (Eterna round: R96, puzzle: Same State NG 2)
- apparent KD of MS2 coat protein (input ligand: FMN 200 uM): 0.0152 µM
- apparent KD of MS2 coat protein [1]: 0.0952 µM
- apparent KD of MS2 coat protein (input ligand: none): 0.139 µM

Sequence: GGAAGGAGGUCAGGAUAUGAACGGAAGGUACAUGAGGAUCACCCAUGUUACGGAGGAAACCCACGUUAGAAGGGACAAGGAAGG [AK SSNG2-V2-4] (Eterna round: R96, puzzle: Same State NG 2)
- apparent KD of MS2 coat protein (input ligand: FMN 200 uM): 0.0196 µM
- apparent KD of MS2 coat protein [1]: 0.0156 µM
- apparent KD of MS2 coat protein (input ligand: none): 0.0305 µM

Sequence: UCUUGGUUUUUGCUCGUUUUUUGUGUUGAACAUGAGGAUCACCCAUGUAUUGUACAAUCCGGUUUAAUAAUGGUCCG [JMF 51] (puzzle: Sensor for hsa-mir-208a)
- apparent KD of MS2 coat protein [2]: 0.0352 µM
- apparent KD of MS2 coat protein [3]: 0.0267 µM
- apparent KD of MS2 coat protein [4]: 0.0363 µM

Sequence: UGGUACAUGGGAGGAUAUGGGCAAGGGACAUGAGGAUCACCCAUGUAUUAAAUGCCGAGAGGCAUCUAGAAGGCCCAUGUACCU [JL SSNG1 3.88] (Eterna round: R96, puzzle: Same State NG 2)
- apparent KD of MS2 coat protein (input ligand: FMN 200 uM): 0.0178 µM
- apparent KD of MS2 coat protein [1]: 0.0798 µM
- apparent KD of MS2 coat protein (input ligand: none): 0.173 µM

Sequence: GGAGCCGGCACUGAGGAUAUUCAUAUUAAAACAUGAGGAUCACCCAUGUAGGCCAGAAGGCCUUGGGAGAAGGCAGGUCGGCCCG [Bibimaor] (Eterna round: R96, puzzle: Same State 2)
- apparent KD of MS2 coat protein (input ligand: FMN 200 uM): 0.0217 µM
- apparent KD of MS2 coat protein [1]: 0.25 µM
- apparent KD of MS2 coat protein (input ligand: none): 0.311 µM

Sequence: AUACCAUCGGGAGGAUAUGGCACCUUAUUGGUGCCAGAAGGUCUAACAUGAGGAUCACCCAUGUGGGAGUGGUCUAAUGACCAC [Eli NG1ss - 87] (Eterna round: R96, puzzle: Same State NG 1)
- apparent KD of MS2 coat protein (input ligand: FMN 200 uM): 0.144 µM
- apparent KD of MS2 coat protein [1]: 0.127 µM
- apparent KD of MS2 coat protein (input ligand: none): 0.186 µM

Sequence: ACAAGCUUUUCUGUAUUGAAAGGUGGGAUACAUGAGGAUCACCCAUGUUUUUUUGAAAAUAAUAUUCCUCGUCUUAU [JR_SHM208A_Sub091] (puzzle: Sensor for hsa-mir-208a)
- apparent KD of MS2 coat protein [2]: 0.0515 µM
- apparent KD of MS2 coat protein [3]: 0.0331 µM
- apparent KD of MS2 coat protein [4]: 0.0471 µM

Sequence: AGUAUACAUGAGGAUCACCCAUGUCAGUAACUGACAGGAUAUGCGUUGCAUCACUGUAAUGCAGAAGGGUCUUGUA [Same State 1 - Mod of JMF's solution 1] (puzzle: Same State 1)
- apparent KD of MS2 coat protein [2]: 0.0982 µM
- apparent KD of MS2 coat protein [3]: 0.181 µM
- apparent KD of MS2 coat protein [4]: 0.415 µM

Sequence: AGAUGGUGUGGAAAGGAUAUACUGUUGAGGACAUGAGGAUCACCCAUGUGGUAGAGGAGGUAAGGGUAGAAGGUUCGGGAUUGGU [JR_SS@_Sub020] (puzzle: Same State 2)
- apparent KD of MS2 coat protein [2]: 0.0299 µM
- apparent KD of MS2 coat protein [3]: 0.0323 µM
- apparent KD of MS2 coat protein [4]: 0.0416 µM

Sequence: UGGUAACAUGAGGAUCACCCAUGUCAAAUGAAUCGAGGAUAUGGGAACUAACAACACAAACUAGAAGGCGAACUUG [Altered State 1-9 - Jieux - Same State 1] (puzzle: Same State 1)
- apparent KD of MS2 coat protein [2]: 0.0326 µM
- apparent KD of MS2 coat protein [3]: 0.0396 µM
- apparent KD of MS2 coat protein [4]: 0.0915 µM

Sequence: UUGAAGAAUUAAGGAUAUCGAGUCAAGAUGUUAAACAUGAGGAUCACCCAUGUGGGUUGCGGUAUCGAGAAGGUAAAUAACAAG [Mat - Same State NG 2 - JL mod - D53] (Eterna round: R96, puzzle: Same State NG 2)
- apparent KD of MS2 coat protein (input ligand: FMN 200 uM): 0.0233 µM
- apparent KD of MS2 coat protein [1]: 0.0236 µM
- apparent KD of MS2 coat protein (input ligand: none): 0.0382 µM

Sequence: CGUUGGACAUCCAGCAAGACAUGAGGAUCACCCAUGUAGGCGCAGGAUAUGCGGGUUCGGUGCUCGCAGAAGGGUGAAGAAAAC [Araerar] (Eterna round: R96, puzzle: Same State NG 3)
- apparent KD of MS2 coat protein (input ligand: FMN 200 uM): 0.0355 µM
- apparent KD of MS2 coat protein [1]: 0.0213 µM
- apparent KD of MS2 coat protein (input ligand: none): 0.0304 µM

Sequence: UUGAAGAAUUAAGGAUAUUGAAUACAUAUGUUUAACAUGAGGAUCACCCAUGUGGGUUGCGGUAUCGAGAAGGUAAAUUAAUAG [Mat - Same State NG 2 - JL mod - D9] (Eterna round: R96, puzzle: Same State NG 2)
- apparent KD of MS2 coat protein (input ligand: FMN 200 uM): 0.142 µM
- apparent KD of MS2 coat protein [1]: 0.0984 µM
- apparent KD of MS2 coat protein (input ligand: none): 0.118 µM

Sequence: AGUCCAGCCUGAGCUGGACAAUAGCAUGUACAUGAGGAUCACCCAUGUCAUGUACAAGCUUUUUGCUCGUCUUAAAA [JL zipper 48] (Eterna round: R96, puzzle: Sensor for hsa-mir-208a)
- apparent KD of MS2 coat protein (input ligand: FMN 200 uM): 0.163 µM
- apparent KD of MS2 coat protein [1]: 0.0124 µM
- apparent KD of MS2 coat protein (input ligand: none): 0.159 µM

Sequence: UGCUUCGUGUAAGGAUAUGCUGCCGUUUCGGCUGCAGAAGGUACUAUAAUACAUGAGGAUCACCCAUGUCUCUCGCUUUGCGGG [salish99_SSng1_r04_305] (Eterna round: R96, puzzle: Same State NG 1)
- apparent KD of MS2 coat protein [1]: 0.0421 µM

Sequence: AUAAAACAUGAGGAUCACCCAUGUCAACAAAGUCGAGGAUAUGGGCAAAUAAAAUAAGAACUAGAAGGCGAAUAAU [salish99_ss1_r3_031] (puzzle: Same State 1)
- apparent KD of MS2 coat protein [2]: 0.374 µM
- apparent KD of MS2 coat protein [3]: 1.77 µM
- apparent KD of MS2 coat protein [4]: 0.139 µM

Sequence: UUUACUUUCAUAGGAUAUCAUGCGAAAAUUGCGUGAGAAGGGUGCACACUGUCUUUCUAGGAGUACAUGAGGAUCACCCAUGUG [SameState NG1 #66] (Eterna round: R96, puzzle: Same State NG 1)
- apparent KD of MS2 coat protein (input ligand: FMN 200 uM): 0.0524 µM
- apparent KD of MS2 coat protein [1]: 0.0483 µM
- apparent KD of MS2 coat protein (input ligand: none): 0.0509 µM

Sequence: GCUGGAAACCACAUGAGGAUCACCCAUGUUCCGGAAACGGCACAGGAUAUCUGUCCGAAAAGGUCAGAGAAGGGUGUAACCAGC [Fiskers NG3ss - 86] (Eterna round: R96, puzzle: Same State NG 3)
- apparent KD of MS2 coat protein (input ligand: FMN 200 uM): 0.19 µM
- apparent KD of MS2 coat protein [1]: 0.338 µM
- apparent KD of MS2 coat protein (input ligand: none): 0.245 µM

Sequence: GUAGCAUACCGAGGAUAUUCAUAUUAAACAUGAGGAUCACCCAUGUAUUAGGCCAAAAGGCCUUGGGAGAAGGCGGAAUGCUAC [Xeonanis - 20 Mod5] (Eterna round: R96, puzzle: Same State NG 2)
- apparent KD of MS2 coat protein (input ligand: FMN 200 uM): 0.0246 µM
- apparent KD of MS2 coat protein [1]: 0.0283 µM
- apparent KD of MS2 coat protein (input ligand: none): 0.0483 µM

Sequence: UUCUCAUUUACAUGAGGAUCACCCAUGUUUUUUUGUCAGAAAUAGGAUAUAGGUCUCUCGUUUUACUAGAAGGAUUUCUUUAUU [JR_SSNG3_Sub088] (Eterna round: R96, puzzle: Same State NG 3)
- apparent KD of MS2 coat protein (input ligand: FMN 200 uM): 0.146 µM
- apparent KD of MS2 coat protein [1]: 0.134 µM
- apparent KD of MS2 coat protein (input ligand: none): 0.145 µM

Sequence: AACAAUCUAUCUGAGGAUAUCAUGAAAUAAACAUGAGGAUCACCCAUGUGCAGGAAAACUGCAUAUGAGAAGGCUGAUAGAUUGA [salish99_ss2_r3_051] (puzzle: Same State 2)
- apparent KD of MS2 coat protein [2]: 0.078 µM
- apparent KD of MS2 coat protein [3]: 0.574 µM
- apparent KD of MS2 coat protein [4]: 5.35 µM

Sequence: GAGGGACAUGAGGAUCACCCAUGUGGAGGGAGUAAAGGAUAUUAGUGUGGGAAAGUAGGGUAAGAAGGUUGAUUGG [JR_SS1_Sub084] (puzzle: Same State 1)
- apparent KD of MS2 coat protein [2]: 0.103 µM
- apparent KD of MS2 coat protein [3]: 0.0749 µM
- apparent KD of MS2 coat protein [4]: 0.209 µM

Sequence: AUUGCUAGCGCAGGAUAUGAUGCGAAAAUUGCGUCAGAAGGGUGUAAUCUCUCAUUGCGGGAGGACAUGAGGAUCACCCAUGUC [SameState NG1 #84] (Eterna round: R96, puzzle: Same State NG 1)
- apparent KD of MS2 coat protein [1]: 0.123 µM

Sequence: GAGUGGCAGUUAGGAUAUACAGUGAUAAUGAUAGUAGAAGGAACUGACAUGAGGAUCACCCAUGUAGGACUAAUCCAGAGAGAG [Parity 32 - Jieux - Same State NG 1] (Eterna round: R96, puzzle: Same State NG 1)
- apparent KD of MS2 coat protein (input ligand: FMN 200 uM): 0.0923 µM
- apparent KD of MS2 coat protein [1]: 0.0212 µM
- apparent KD of MS2 coat protein (input ligand: none): 0.0315 µM
